Results reported in patent EP4745156A1.
Residue numbers refer to the chain shown, from its start.

B1: 6465-H1K2-canIgGB (antibody, V domains shown)
VH: EVQLVESGGDLVKPGGSLRLSCVASGYSFTNYYLYWVRQAPGKGLEWVGELNPRNGGTNLNAKFKTRFTISVDKAKNMAYLQMNSLRAEDTAVYYCTRGGTTVVVRDVMDFWGQGTLVTVSS
VL: DIVLTQTPLSLSVSPGEPASISCRASESVDSYGNSFMHWYRQKPGQSPQLLIYRASNLESGVPDRFSGSGSRTDFTLRISRVEADDAGVYYCQQSNEDPYTFGQGTKLEIKR
B2: 6465-H2K2-canIgGB (antibody, V domains shown)
VH: B1 VH with E46Q, V48L, M78T
VL: B1 VL
B3: 6465-H1K3-canIgGB (antibody, V domains shown)
VH: B1 VH
VL: B1 VL with L4M, R72G
B4: 6465-H3K2-canIgGB (antibody, V domains shown)
VH: B1 VH with G49A, V72R, K74N
VL: B1 VL
B5: 6465-H2K3-canIgGB (antibody, V domains shown)
VH: B1 VH with E46Q, V48L, M78T
VL: B1 VL with L4M, R72G

molecular target: His-tagged canine IL-31 (interleukin 31) recombinant protein (canine); assay: cell-based or functional assay

pSTAT IC50 (µg/mL) | Binder
7.9 µg/mL | B1
7.3 µg/mL | B2
7.4 µg/mL | B3
8.2 µg/mL | B4
7.6 µg/mL | B5

molecular target: His-tagged canine IL-31 (interleukin 31) recombinant protein (canine); assay: BLI (Gator), biotinylated antibody on streptavidin probe, canine IL-31 as analyte

Kd | koff | kon | Binder
6.54 nM | 0.00088 s⁻¹ | 135000 M⁻¹ s⁻¹ | B1
17.8 nM | 0.00166 s⁻¹ | 93200 M⁻¹ s⁻¹ | B2
2.5 nM | 0.00145 s⁻¹ | 579000 M⁻¹ s⁻¹ | B3
6.95 nM | 0.00361 s⁻¹ | 519000 M⁻¹ s⁻¹ | B4
4.99 nM | 0.001 s⁻¹ | 201000 M⁻¹ s⁻¹ | B5
